{
  "source": "paper PMC9396414",
  "about": "(2022)",
  "target": "RbPLX7",
  "assay": "SPR",
  "data": [
    {"binder": "biotinylated human Plexin-B1 (20–535)-Avi-6xHis (domain or fragment, biotin on the Avi-tag (in vitro, BirA enzyme)) LQPLPPTAFTPNGTYLQHLARDPTSGTLYLGATNFLFQLSPGLQLEATVSTGPVLDSRDCLPPVMPDECPQAQPTNNPNQLLLVSPGALVVCGSVHQGVCEQRRLGQLEQLLLRPERPGDTQYVAANDPAVSTVGLVAQGLAGEPLLFVGRGYTSRGVGGGIPPITTRALWPPDPQAAFSYEETAKLAVGRLSEYSHHFVSAFARGASAYFLFLRRDLQAQSRAFRAYVSRVCLRDQHYYSYVELPLACEGGRYGLIQAAAVATSREVAHGEVLFAAFSSAAPPTVGRPPSAAAGASGASALCAFPLDEVDRLANRTRDACYTREGRAEDGTEVAYIEYDVNSDCAQLPVDTLDAYPCGSDHTPSPMASRVPLEATPILEWPGIQLTAVAVTMEDGHTIAFLGDSQGQLHRVYLGPGSDGHPYSTQSIQQGSAVSRDLTFDGTFEHLYVMTQSTLLKVPVASCAQHLDCASCLAHRDPYCGWCVLLGRCSRRSECSRGQGPEQWLWSFQPELGCLQ", "values": [
      {"measurement": "Kd", "value": 0.346, "unit": "nM"}
    ]}
  ]
}
